Test results taken from patent US20050037012A1.

T1: human IL-28A (human) (UniProt Q8IZJ0)
T1 sequence: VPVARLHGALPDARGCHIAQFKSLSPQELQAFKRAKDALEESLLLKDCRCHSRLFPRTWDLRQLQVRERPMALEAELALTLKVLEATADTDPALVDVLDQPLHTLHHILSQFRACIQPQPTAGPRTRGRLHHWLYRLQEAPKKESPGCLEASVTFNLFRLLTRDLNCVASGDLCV

T2: mouse IL-28 (zcyto24) (mouse) (UniProt Q4VK74)
T2 sequence: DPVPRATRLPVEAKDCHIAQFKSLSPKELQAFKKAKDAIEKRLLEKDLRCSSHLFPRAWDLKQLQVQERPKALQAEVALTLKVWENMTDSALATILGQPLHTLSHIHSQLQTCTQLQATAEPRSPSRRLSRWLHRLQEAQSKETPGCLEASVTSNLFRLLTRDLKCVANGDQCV


How the values were obtained:
Assay in all cases: cell-based or functional assay
human IL-28A (human) = target: T1, human IL-28A (human)
human IL-29 (human) = human IL-29 (human) (UniProt Q8IU54)
Sequence of human IL-29 (human) (Q8IU54 20-200): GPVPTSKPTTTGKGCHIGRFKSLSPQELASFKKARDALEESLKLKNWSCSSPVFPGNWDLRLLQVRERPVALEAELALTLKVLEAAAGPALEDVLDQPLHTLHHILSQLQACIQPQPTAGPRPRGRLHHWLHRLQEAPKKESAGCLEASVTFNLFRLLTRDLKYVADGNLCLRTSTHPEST

[1] = target: T2, mouse IL-28 (zcyto24) (mouse)
[2] = target: human IL-28 receptor (IL-28 receptor alpha subunit with CRF2-4) on 293 HEK cells (human)
Sequence of human IL-28 receptor (IL-28 receptor alpha subunit with CRF2-4) on 293 HEK cells (human) (Q8IU57 whole entry, chain 1 of 2): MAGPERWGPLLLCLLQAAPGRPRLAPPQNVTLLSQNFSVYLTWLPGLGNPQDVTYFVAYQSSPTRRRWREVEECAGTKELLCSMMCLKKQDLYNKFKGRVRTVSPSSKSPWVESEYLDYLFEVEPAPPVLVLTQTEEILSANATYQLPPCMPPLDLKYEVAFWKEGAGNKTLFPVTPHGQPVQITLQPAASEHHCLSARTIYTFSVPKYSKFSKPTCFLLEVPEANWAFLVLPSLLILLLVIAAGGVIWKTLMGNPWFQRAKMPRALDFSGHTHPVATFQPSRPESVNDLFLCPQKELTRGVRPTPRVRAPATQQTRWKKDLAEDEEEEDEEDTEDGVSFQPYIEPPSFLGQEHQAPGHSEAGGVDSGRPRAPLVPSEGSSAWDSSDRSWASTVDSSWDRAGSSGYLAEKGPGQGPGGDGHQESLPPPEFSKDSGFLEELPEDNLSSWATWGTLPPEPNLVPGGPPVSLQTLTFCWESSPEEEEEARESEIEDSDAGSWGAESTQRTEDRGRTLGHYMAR
Sequence of human IL-28 receptor (IL-28 receptor alpha subunit with CRF2-4) on 293 HEK cells (human) (Q08334 whole entry, chain 2 of 2, further chain): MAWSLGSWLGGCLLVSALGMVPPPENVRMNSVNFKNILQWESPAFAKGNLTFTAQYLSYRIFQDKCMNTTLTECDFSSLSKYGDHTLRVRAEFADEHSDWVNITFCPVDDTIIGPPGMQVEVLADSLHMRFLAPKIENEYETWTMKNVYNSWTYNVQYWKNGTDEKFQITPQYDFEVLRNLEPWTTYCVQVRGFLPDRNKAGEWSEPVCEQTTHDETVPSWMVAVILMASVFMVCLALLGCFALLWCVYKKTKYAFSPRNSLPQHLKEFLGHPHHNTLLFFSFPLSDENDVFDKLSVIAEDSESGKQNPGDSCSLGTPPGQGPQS

Molecule	Percent Inhibition of Ligand-induced ISRE Signaling by Soluble Receptors; 10 ng/ml ligand, 10 micrograms/ml soluble receptor; 293 HEK cells overexpressing zcytor19 (human IL-28A (human))	Percent Inhibition of Ligand-induced ISRE Signaling by Soluble Receptors; 10 ng/ml ligand, 10 micrograms/ml soluble receptor; 293 HEK cells overexpressing zcytor19 (human IL-29 (human))	Percent Inhibition of Ligand-induced ISRE Signaling by Soluble Receptors; 10 ng/ml ligand, 10 micrograms/ml soluble receptor; 293 HEK cells overexpressing zcytor19 [1]	ISRE-luciferase signaling, fold induction over medium alone; Zcyto10 at 125 ng/ml; 293 cells transfected with ISRE-Luc. and IL-28R (fold induction) [2]	ISRE-luciferase signaling, fold induction over medium alone; HuIL10 at 100 ng/ml; 293 cells transfected with ISRE-Luc. and IL-28R (fold induction) [2]	ISRE-luciferase signaling, fold induction over medium alone; IL-28B at 125 ng/ml; 293 cells transfected with ISRE-Luc. and IL-28R (fold induction) [2]
human zcytor19-Fc/human CRF2-4-Fc heterodimer soluble receptor (Fc fusion)	16%	16%	47%	–	–	–
zcyto10 (from UniProt Q9NYY1 25-176) (ligand)	–	–	–	1	–	–
huIL10 (from UniProt P22301 19-178) (ligand)	–	–	–	–	0.5	–
human zcytor19-Fc homodimer soluble receptor (Fc fusion, not shown: a dimerising Fc or GST) RPRLAPPQNVTLLSQNFSVYLTWLPGLGNPQDVTYFVAYQSSPTRRRWREVEECAGTKELLCSMMCLKKQDLYNKFKGRVRTVSPSSKSPWVESEYLDYLFEVEPAPPVLVLTQTEEILSANATYQLPPCMPPLDLKYEVAFWKEGAGNKTLFPVTPHGQPVQITLQPAASEHHCLSARTIYTFSVPKYSKFSKPTCFLLEVPEANWA	92%	45%	90%	–	–	–

Further lines, results first:

Percent Inhibition of Ligand-induced ISRE Signaling by Soluble Receptors; 10 ng/ml ligand, 10 micrograms/ml soluble receptor; 293 HEK cells overexpressing zcytor19 (human IL-28A (human))	Percent Inhibition of Ligand-induced ISRE Signaling by Soluble Receptors; 10 ng/ml ligand, 10 micrograms/ml soluble receptor; 293 HEK cells overexpressing zcytor19 (human IL-29 (human))	Percent Inhibition of Ligand-induced ISRE Signaling by Soluble Receptors; 10 ng/ml ligand, 10 micrograms/ml soluble receptor; 293 HEK cells overexpressing zcytor19 [1]	ISRE-luciferase signaling, fold induction over medium alone; Zcyto10 at 125 ng/ml; 293 cells transfected with ISRE-Luc. and IL-28R (fold induction) [2]	ISRE-luciferase signaling, fold induction over medium alone; HuIL10 at 100 ng/ml; 293 cells transfected with ISRE-Luc. and IL-28R (fold induction) [2]	ISRE-luciferase signaling, fold induction over medium alone; IL-28B at 125 ng/ml; 293 cells transfected with ISRE-Luc. and IL-28R (fold induction) [2]	Molecule
80%	79%	82%	–	–	–	human CRF2-4-Fc homodimer soluble receptor (Fc fusion)
91%	103%	89%	–	–	–	murine zcytor19-Ig homodimer soluble receptor (Fc fusion, mouse, UniProt Q8CGK5 21-227, looked up, not shown: a dimerising Fc or GST) RPRLAPPRNVTLFSQNFTVYLTWLPGLGSPPNVTYFVTYQSYIKTGWRPVEHCAGIKALVCPLMCLKKLNLYSKFKGRVQAASAHGRSPRVESRYLEYLFDVELAPPTLVLTQMEKILRVNATYQLPPCMPSLELKYQVEFWKEGLGSKTLFPDTPYGQPVQIPLQQGASRRHCLSARTVYTLIDIKYSQFSEPSCIFLEAPGDKRA
–	–	–	–	–	104	human IL-28B (ligand) VPVARLRGALPDARGCHIAQFKSLSPQELQAFKRAKDALEESLLLKDCKCRSRLFPRTWDLRQLQVRERPVALEAELALTLKVLEATADTDPALGDVLDQPLHTLHHILSQLRACIQPQPTAGPRTRGRLHHWLHRLQEAPKKESPGCLEASVTFNLFRLLTRDLNCVASGDLCV
